Measured values: patent US20250340659A1 (PETMEDIX, published 2025)
Positions count from the first letter of the chain named.

T1: canine OX40L, full length membrane form, expressed on HEK293 cells (canine)
T1 chain: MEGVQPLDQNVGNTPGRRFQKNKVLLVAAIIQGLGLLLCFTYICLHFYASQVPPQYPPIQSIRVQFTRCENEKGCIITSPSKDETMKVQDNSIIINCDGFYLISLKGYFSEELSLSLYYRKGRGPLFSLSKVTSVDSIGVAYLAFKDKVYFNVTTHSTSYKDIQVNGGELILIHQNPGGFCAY

T2: recombinant canine OX40L ECD-TNCc-HIS protein (canine)
T2 construct: also called Trimeric OX40L probe (HIS tag); trimeric canine OX40L
T2 chain: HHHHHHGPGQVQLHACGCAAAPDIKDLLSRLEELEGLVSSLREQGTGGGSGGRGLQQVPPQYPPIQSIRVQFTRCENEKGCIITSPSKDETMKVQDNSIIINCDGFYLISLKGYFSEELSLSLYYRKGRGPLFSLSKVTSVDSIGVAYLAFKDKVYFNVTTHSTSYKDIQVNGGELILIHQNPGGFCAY

B1: PMX028 (antibody, V domains shown)
VH: EVQMVESGGDLVKPGGSLRLSCVASGFTFSDYHMSWVRQAPGKGLQWVAYITSGGSSTSYADAVKGRFTISRDNAKNTLYLQMNSLRAEDTAVYYCASDLVLVVGGGVYWGQGTLVTVSS
VL: SYELTQPPSVNVTLRETAHITCGGDSIGSKYVQWIQQNPGQAPVVIIYKDSNRPTGIPERFSGANSGNTATLTISGALAEDEADYYCQVGDSGTKAVFGEGTQLTVL
notes: also called PMX28
B2: PMX045 (antibody, V domains shown)
VH: EVQLVESGGDLVKPGGSLRLSCVASGFTFSSYHMTWVRQAPGKGLQWVAYITSGGITTSYADAVKGRFTISRDNAKNTLYLQMSSLRAEDTAMYYCARDLVLLLGGADYWGQGTLVTVSS
VL: B1 VL with S29R, E100G, Q103H
notes: also called PMX45
B3: PMX033 (antibody, V domains shown)
VH: B2 VH with T35S, I56R, S84K, M93V, R98S, L103V, D108E
VL: B1 VL with S29R, T94S, E100G, Q103H
notes: also called PMX33
B4: PMX038 (antibody, V domains shown)
VH: B2 VH with T35S, I56R, S84K, M93V, L103V, D108E
VL: B1 VL with S29R, T94S, E100G, Q103H
notes: also called PMX38
B5: PMX032 (antibody, V domains shown)
VH: B2 VH with T35S, I56R, T69I, S84N, M93V, R98S, L103I
VL: B1 VL with S29R, S51N, T94S, E100G, Q103H
notes: also called PMX32
B6: PMX042 (antibody, V domains shown)
VH: B2 VH with T35S, I56S, S84D, E89D, M93V, R98S
VL: B1 VL with S29R, N38H, S51Y, E100G, Q103H
notes: also called PMX42
B7: PMX034 (antibody, V domains shown)
VH: B1 VH with M4L, D31N, T52V, S59T, N84T, V103L, G107A, V108D
VL: B1 VL with E100G, Q103H
notes: also called PMX34
B8: PMX064 (antibody, V domains shown)
VH: B2 VH with T35S, S84N, M93V, R98S, L103I
VL: B1 VL with R15S, S29R, E100G, Q103H
notes: also called PMX64
B9: PMX063 (antibody, V domains shown)
VH: EVQLVESGGDLVRPGGSLRLSCVASGFTFNNYHMSWVRQAPGKGLQWVAFINSGGSGTTFADVVRGRFTISRDYAKNALYLQMNSLRAEDTAVYYCASGSIWTHFDYWGQGTLVTVSS
VL: SFVLTQLPSVSVTLRQTARITCGGDIIGSKNVYWYQQRLGQAPVLIIYRDNNRPTGIPERFSGASSGNTATLTISGALAEDEADYYCQVWDNSNKAMFGGGTHLTVL
notes: also called PMX63
B10: PMX060 (antibody, V domains shown)
VH: EVQLVESGGDLMKPGGSLRLSCVASGFTFSSFPMSWVRQAPGKGLQWVAYIHSGGSSTSYADAVKGRFTISRDNAKNTLYLQMNSLRAEDTAIYYCARTFPTVAADNWFYYWGQGTLVTVSS
VL: SYVLTQLPSKNVTLKQAAHITCGGDNIGSKSVHWYQQKLGQAPVLIIYYDSSRPTGIPERFSGANSGNTATLTISGALAEDEADYYCQVWDSSAKWVFGEGTQLTVL
notes: also called PMX60
B11: PMX061 (antibody, V domains shown)
VH: B10 VH with M12V, H52N, A63V, E89D, I93V, A105T
VL: B10 VL
notes: also called PMX61

Legend:
[1] = target: T1, canine OX40L, full length membrane …; assay: cell-based or functional assay
[2] = target: T2, recombinant canine OX40L ECD-TNCc-HIS …; assay: SPR KD1, bivalent analyte model
Outline: (§1)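 Purified antigen amine-coupled at low density to a CM5 chip; candidate antibodies injected as analyte over a concentration range. Kinetic curves fitted with a bivalent analyte model to give functional affinity and dissociation rates.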

[3] = target: T1, canine OX40L, full length membrane …; assay: flow cytometry, OX40L HEK minus WT HEK
Outline: (§2)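 CHO supernatants at 1, 5 or 10 μg/ml in PBS/3% FBS incubated 30′ on ice with cells surface-expressing canine OX40L. Bound antibody detected with fluorescent anti-canine Fc secondary (1:1000, 30 min, dark) and measured by flow cytometry, with parental WT HEK signal subtracted where stated.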

[4] = target: T1, canine OX40L, full length membrane …; assay: flow cytometry
Outline: as §2

[5] = target: T2, recombinant canine OX40L ECD-TNCc-HIS …; assay: SPR Koff (kd2)
Outline: as §1

[6] = target: T2, recombinant canine OX40L ECD-TNCc-HIS …; assay: SPR Koff (kd1)
Outline: as §1

Binder | % Signal Inhibition Average [1] [%] | % Signal Inhibition Rep1 [1] [%] | % Signal Inhibition Rep2 [1] [%] | % Signal Inhibition Rep3 [1] [%] | Kd [2] [nM] | GEO mean difference [3] | GEO mean OX40L expressing HEK [4] | koff [5] [s⁻¹] | koff [6] [s⁻¹]
B1 | 66.4 | 61.7 | 75.4 | 62.1 | 17 | 1.02e+06 | 1.05e+06 | 0.000627 | 0.00935
B2 | 75.9 | 79.9 | 81.7 | 66.2 | 10.4 | 1.44e+06 | 1.47e+06 | 0.000554 | 0.00484
B3 | 60.3 | 55.8 | 69.8 | 55.4 | 36.4 | 1.43e+06 | 1.46e+06 | 0.00101 | 0.0103
B4 | 68.5 | 79.8 | 75 | 50.8 | 100 | 1.53e+06 | 1.56e+06 | 0.000796 | 0.0105
B5 | 70 | 76.8 | 57.4 | 75.7 | 7.2 | 1.42e+06 | 1.45e+06 | 1.71e-05 | 0.00586
B6 | 78.8 | 77.8 | 87.5 | 71 | 274 | 1.48e+06 | 1.51e+06 | 0.00056 | 0.0292
B7 | 64.2 | 76.4 | 64.7 | 51.6 | 7230 | 1.36e+06 | 1.39e+06 | 0.000252 | 0.135
B8 | 91.1 | 88.9 | 94.8 | 89.7 | 145 | 3.42e+06 | 3.45e+06 | 0.000921 | 0.0352
B9 | 74.4 | 68.3 | 83 | 72 | 0.271 | 3.15e+06 | 3.18e+06 | 5.21 | 9.05e-05
B10 | 66.1 | 58.9 | 68.4 | 71.1 | 70.9 | 3.07e+06 | 3.1e+06 | 0.000925 | 0.00933
B11 | 56.1 | 51 | 61.6 | 55.7 | 89.6 | 3.26e+06 | 3.29e+06 | 0.000729 | 0.00746
